Experimental data from PMC8677033.

Molecular target: HIS-RBS1_1412 WT (UniProt Q8TEQ6 1297-1412)
Experiment: EMSA

HIS-RBS1_1412 WT, sequence (Q8TEQ6 1297-1412): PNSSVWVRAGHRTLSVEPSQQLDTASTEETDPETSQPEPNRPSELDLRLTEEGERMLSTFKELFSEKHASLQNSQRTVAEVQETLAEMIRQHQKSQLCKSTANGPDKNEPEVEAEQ

UUUUU (ssRNA) [U(5)]: no binding.
